# In publication PMC5522101:
# Target: VPAC1-C37/A-EYFP (Cys37/Ala mutant of VPAC1 fused with enhanced yellow fluorescent protein) (mouse (stated for the cDNA; the primers of Table 1 and residues 31-457 fit human VPAC1)) (UniProt P97751)
# Experiment: radioligand binding; competition binding on the cell membrane fraction of CHO cells (50 ug protein/ml): 1 nM [125I]-VIP with or without unlabelled VIP, 60 min at 30°C at equilibrium; nonspecific binding with 2 uM unlabelled peptide; data calibrated by the EYFP fluorescence of the membrane fraction
binder,measurement,value
HSDAVFTDNYTRLRKQMAVKKYLNSILN [vasoactive intestinal peptide],Kd,420 pM
